Data from the nanobody polyreactivity screen of Harvey et al. (2022).

Test: yeast display, Sf9 membrane polyspecificity reagent, FACS + sequencing; frameworks hold sequencing errors
Procedure, shortened: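 Nanobodies from a synthetic yeast display library (Saccharomyces cerevisiae BJ5465), induced 36–48 hours with galactose, were stained 1 hour at 4 °C with 10% biotinylated, detergent-solubilized Sf9 membrane reagent, enriched on streptavidin microbeads, then FACS-sorted. Anti-HA (expression) and streptavidin (reagent binding) fluorescence set low and high (top ~1%) gates. Polyreactivity labels come from the gate of origin. Genes were colony-PCR amplified, MiSeq 2 × 250 sequenced and filtered by CDR length.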

Row | Sequence | polyreactivity (PSR sort gate)
1 | QVQLVESGGGLVQAGGSLRLSCAASGRIFARNAMGSYRQAPGKERELVATIRVGGGSTYYADSVKGRFTISRDNAKNTVYLQMNSLKPEDTAVYYCAVRQLYSYPGDRRGYYWGQGTQVTVSS | low polyreactivity
2 | QVQLVESGGGLVQAGGSLRLSCAASGRIFARYVMGWYRQAPGKERELVAAISPSGSRTYYADSVKGRFTISRDNAKNTVYLQMNSLKPEDTAVYYCAATGVYTKNPRGMDYWGQGTQVTVSS | high polyreactivity
3 | QVQLVESGGGLVQAGGSLRLSCAASGRIFASKAMGWYRQAPGKERELVAAITTTGGSTYYADSVKGRFTISRDNAKNTVYLQMNSLKPEDTAVYYCASRAIPRVRRYGSMNYWGQGTQVTVSS | high polyreactivity
4 | QVQLVESGGGLVQAGGSLRLSCAASGRIFASYAMGWYRQAPGKERELVAAISAGGGSRTYYADSVKGRFTISRDNAKNTVYLQMNSLKPEDTAVYYCNTANSWQRQYYYWGQGTQVTVSS | high polyreactivity
5 | QVQLVESGGGLVQAGGSLRLSCAASGRIFASYAMGWYRQAPGKERELVAAISLSGGSTYYADSVKGRFTISRDNAKNTVYLQMNSLKPEDTAVYYCNARAIGWRIYDYWGQGTQVTVSS | high polyreactivity
6 | QVQLVESGGGLVQAGGSLRLSCAASGRIFASYGMGWYRQAPGKETELVATINSSGGSTYYADSVKGRFTISRDNAKNTVYLQLKSLKPEDTAVYYSNARHGYYKYGYWGQGTQVTVSS | low polyreactivity
7 | QVQLVESGGGLVQAGGSLRLSCAASGRIFATNAMGWDRPAPGKERELVATITRSAGRTYYADSVKGRFTISRDNAKNTVYFQMNSLKPEDTAVYYCAASYWDTEPGYREYDYWGQGTQVTVSS | low polyreactivity
8 | QVQLVESGGGLVQAGGSLRLSCAASGRIFAVNAMGWYRQAPGTERELVAAITNVASTKYADSVKGRFTISRDNAKNTVYLQMNSLKQEDTAVYYCNADLSQEDWKMDYWGQGTQVTVSS | low polyreactivity
9 | QVQLVESGGGLVQAGGSLRLSCAASGRIFAVYAMGWYRQAAGKERELVAAITSTGSTNYADSVKGRFTISRDNAKNTVYLQMNSLKPEDTAVYYCAKRRHSSWLRYNYWGQGTQVTVSS | low polyreactivity
10 | QVQLVESGGGLVQAGGSLRLSCAASGRIFAWNDMGWYRQAPGKERELVAAITSGGSTYYADSVKGRFTISRDNAKNTVYLQMNSLKPEDTAVYYCAADRVRRNDKLAYDYWGQGTQVTVSS | low polyreactivity
11 | QVQLVESGGGLVQAGGSLRLSCAASGRIFAYKAMGWYRQEPGKERELVAAISWSGSSTYYADSVKGRFTISRDNAKNTVYLQMNSLKPEDTAVYYCAATPWYYYSTSYAYYFWGQGTQVTVSS | high polyreactivity
12 | QVQLVESGGGLVQAGGSLRLSCAASGRIFAYNAMGWYRQAPGKERELVAAISSGGNTYYADSVKGRFTISRDNAKNTVYLQMNSLKPEDTAVYYCNAGVGWHRYYSNYDFWGQGTQVTVSS | low polyreactivity
13 | QVQLVESGGGLVQAGGSLRLSCAASGRIFAYYAMGWYREAAGKERELVAAITTNGGGTYYADSVKGRFTISRDNAKNTVYLQMNSLKPEHTAVYYSNADKQRSSIFDYWGQGTQVTVSS | low polyreactivity
14 | QVQLVESGGGLVQAGGSLRLSCAASGRIFAYYAMGWYRQAPGKERELVAAISGGGGSTYYADSVKGRFTISRDNAKNTVYLQMNSLKPEDTAVYFCAAKSSRYDYYYWGHGTQVTVSS | high polyreactivity
15 | QVQLVESGGGLVQAGGSLRLSCAASGRIFAYYAMGWYRQAPGKERELVAAITTNGGGTYYADSVKGRFTISRDNAKNTFYLQMNSLKPEDTGVYYCNAVKQRSSIFDYWGQGTQVTVSS | low polyreactivity
16 | QVQLVESGGGLVQAGGSLRLSCAASGRIFAYYAMGWYRQPPGKERELVAAISRSGVSTYYADSVKGRFTISRDNAKNTVYLQMNSLKPEDTAVYYCAKTLSPEGVPYDYWGQGTQVTVSS | low polyreactivity
17 | QVQLVESGGGLVQAGGSLRLSCAASGRIFAYYLMGCYRQAPGKEREFVAAISWSGGRTYYADSVKGRFTISRDNAKNTVYLQMNSLKPEDTAVYYCNAGRPLWLAYGMDYWGQGTQVTVSS | low polyreactivity
18 | QVQLVESGGGLVQAGGSLRLSCAASGRIFAYYVMGWYRQAPGKERELVAAITWSGTSTYYADSVKGRFTISRDNAKNTVYLQMNSLKPEDTAVYYCNAVWSRSTRGYDYWGQGTQVSVSS | high polyreactivity
19 | QVQLVESGGGLVQAGGSLRLSCAASGRIFCGYMGWYRQAPGKEREFVAAISVRGGGTYYADSVKGRFTISRDNAKNTVYLQMNSLKPEDTAVDYCNTRGGWPYDYWGQGTQVTVSS | low polyreactivity
20 | QVQLVESGGGLVQAGGSLRLSCAASGRIFDANAMGWYRQAPGKERELVAAITYSGGRTYYADSVKGRFTISRDNAKNTVYLQMNSLKPEDTAVYYCAKRYAYIYDSWGQGTQVTVSS | low polyreactivity
21 | QVQLVESGGGLVQAGGSLRLSCAASGRIFDDNAMGWYRQAPGKERELVADINNGTSTNYADSVKGRFTISRDNAKNTVYLQMNSLKPEDTAVYYCAADDYIYYRILGDSFVYKAYGYWGQGTQVTVSS | low polyreactivity
22 | QVQLVESGGGLVQAGGSLRLSCAASGRIFDEYALGWYRQAPGKEREFVAAITYSAGSTYYADSVKGRFTISRDNAKNTVYLQMNSLKPEDTAVYDCAADRYYWWWYTYNYWGQGTQVTVSS | low polyreactivity

Row | Sequence | polyreactivity (PSR sort gate)
23 | QVQLVESGGGLVQAGGSLRLSCAASGRIFDEYAMGWYRQAPGKERELVAAITSDGTTNYADSVKGRFTISRDNAKNTVYLQMNSLKPEDTAVYYCNAARPQSEPASQLDLYGYDYWGQGTQVTVSS | low polyreactivity
24 | QVQLVESGGGLVQAGGSLRLSCAASGRIFDFNAMGWYRQAPGKERELVAAITWSGTSTYYADSVKGRFTISRDNAKNTVYLQMNSLKPEDTAVYYCAVDYSPWWAFSYSDYYYWGQGTQVTVSS | high polyreactivity
25 | QVQLVESGGGLVQAGGSLRLSCAASGRIFDFYAMGWYRQAPGKERELVAAISWDGSDTYYADSVKGRFTISRDNAKNTVYLQMNSLKPEDTAVYYCAADYYSPSGQEYNYWGQGTQVTVSS | high polyreactivity
26 | QVQLVESGGGLVQAGGSLRLSCAASGRIFDGNALGWYRKAPGKERELFAAISWTGGSTYYADSVKGRYTISRDNAKNTVYLQLNSLKPEDTAVYYCAADSGWWLDQLSWYDYWGQGTQVTVSS | low polyreactivity
27 | QVQLVESGGGLVQAGGSLRLSCAASGRIFDGNAMGWYRQAPGKERELVAAISRIGGTYYADSVKGRFTISRDNAKNTVYLQMNSLKPEDTAVYYCAADPSSVGYHVEYDYWGQGTQVTVSS | low polyreactivity
28 | QVQLVESGGGLVQAGGSLRLSCAASGRIFDGNAMGWYRQAPGKERELVATITRGGRTNYADSVKGRFTISRDNAKNTVYLQMNSLKPEDTAVYYCNARGSERVDTYSLYDYWGQGTQVTVSS | low polyreactivity
29 | QVQLVESGGGLVQAGGSLRLSCAASGRIFDGNVMGWYRQAPGKERELVAAISRSGVRTYYADSVKGRFTISRDNAKKTVYLQMNSLKPEDTAVYYCAADVYRQFYPFKSDYWGQGTQVTVSS | high polyreactivity
30 | QVQLVESGGGLVQAGGSLRLSCAASGRIFDIYAMGWYRQAPGKERELVAAIDESGGSTYYADSVKGRFTISRDNAKNTVYLQMNSLKPEDTAVYYCATDDTWTISYGWYWFTYEYWGQGTQVTVSS | low polyreactivity
31 | QVQLVESGGGLVQAGGSLRLSCAASGRIFDIYAMGWYRQAPGKERELVAAITNSGVSTYYADSVKGRFTISRDNAKNTVYLQMNSLKPEDTAVYYCNAGDFERAVVVFIQHGGYYWGQGTQVTVSS | low polyreactivity
32 | QVQLVESGGGLVQAGGSLRLSCAASGRIFDIYAMGWYRQAPGKERELVAGITSVGSTNYADSVKGRFTISRDNAKNTVYLQMNSLKPEDTAFYYCAADTSVHSEVDYWGQGTQGTVSS | low polyreactivity
33 | QVQLVESGGGLVQAGGSLRLSCAASGRIFDKNAMGWYRQAPGKERELVAAINRSGGRTYYADSVKGRFTISRDNAKNTVYLQMNSLKPEDTAVYYCAADTQGSRYDYWGQGTQVTVSS | high polyreactivity
34 | QVQLVESGGGLVQAGGSLRLSCAASGRIFDLNAMGWYRQAPGKERELVAAITWSGDSTYYADSVKGRFTISRDNAKNTVYLQMNSLKPEDTAVYYCAAASRTSYSWVDYEFDYWGQGTQVTVSS | low polyreactivity
35 | QVQLVESGGGLVQAGGSLRLSCAASGRIFDLYAMGWYRQAPGKERELVASITTIGGRTYYADSVKGRFTISRDNAKNTVYLQMNSLKPEDTAVYYCAKSRWLYTTRSGYDYWGQGTQVTVSS | high polyreactivity
36 | QVQLVESGGGLVQAGGSLRLSCAASGRIFDLYTMGWYRQAPGKERELVAAIRWSDGSTYYADSVKGRFTISRDNAKNTVYLQMNSLKPEDTAVYYCATDTAILINFVLYDYWGQGTQVTVSL | low polyreactivity
37 | QVQLVESGGGLVQAGGSLRLSCAASGRIFDNYGMGWYRQAPGKERELVAAISSGGGRYYADSVTGRFTISRDNAKNTVYFQMHSLKPEDTAVYYCAKDPKYHLSGGYDYWGQGTQVTVSS | low polyreactivity
38 | QVQLVESGGGLVQAGGSLRLSCAASGRIFDNYGMGWYRQAPGKERELVAAISSGGGTYYADSVKGRFTISRDNAKNTVYLQMNSLKPEDTAVYYCAKRRVYDRSFGRYDYWGQGTQVTVSS | low polyreactivity
39 | QVQLVESGGGLVQAGGSLRLSCAASGRIFDNYVMGWYRQAPGKERELVAAISSGGGTYYADSVKGRFTISRDNAKNTVYLQMNSLKPEDTAVYYCAKRRVYDRSFGRYDYCGQGTQVTVSS | low polyreactivity
40 | QVQLVESGGGLVQAGGSLRLSCAASGRIFDNYVMGWYRQAPGKERELVAAISSGGGTYYADSVKGRFTISRDNAKNTVYVQMNSLKPEDTAVYYCAKRRVYDRSFGRYDYWGQGTQVTVSS | low polyreactivity
41 | QVQLVESGGGLVQAGGSLRLSCAASGRIFDPNVMGWYRQAPGKERELVAAIRTSGGRTYYADSVKGRFTISRDNAKNTVYLQMHSLKPEDTAVYYCAKVNRAFPKYLIYGYWGQGTQVTVSS | high polyreactivity
42 | QVQLVESGGGLVQAGGSLRLSCAASGRIFDPYAMGWYRQAPGKERELVAAIDWSDGGTYYADSVKGRFTISRDNAKNTVYLQMNSLKPEDTAVYYCAADLLDISYYDGMDYWGQGTQVTVSS | low polyreactivity
43 | QVQLVESGGGLVQAGGSLRLSCAASGRIFDQNAMGWYRQAPGKDRELVAAISSSGGRTYYADSVKGRFTISRDNAKNPVYLQMNSLKPEDTAVYYCNKDRTVTTYEYWGQGTQVTVSS | high polyreactivity
